Data from the nanobody polyreactivity screen of Harvey et al. (2022).

Assay: yeast display, Sf9 membrane polyspecificity reagent, FACS + sequencing; frameworks hold sequencing errors
Outline: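 Sorting gates, low and high (top ~1%), were placed on anti-HA fluorescence to track expression and on streptavidin fluorescence to track reagent binding. A clone's polyreactivity label is taken from the gate it came out of. The reagent was 10% biotinylated, detergent-solubilized Sf9 membrane, applied for 1 hour at 4 °C to galactose-induced yeast display cells.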

Sequence | polyreactivity (PSR sort gate)
QVQLVESGGGLVQAGGSLRLSCAASGSIFALYAMGWYRQAPGKERELVAAISYRGGRTYYADSVKGRFTISRDNAKNTVYLQMNSLKPEDTAVYFCATDFPGKFDYWGQGTQVTVSS | low polyreactivity
QVQLVESGGGLVQAGGSLRLSCAASGSIFALYAMGWYRQAPGQERELVAAISYRGGRTYYADSVKGRFTISRDNAKNTVYLQMNSLKPEDTAVYYCNARAFPFGTGVQGFGFGYWGQGTQVTVSS | low polyreactivity
QVQLVESGGGLVQAGGSLRLSCAASGSIFAPDVMGWYRQAPGKERELVAAITESGGRTYYAASVKGRFTISRDNAKNTVYLQMNSLKPVDTAVYSCAARTFDRNRQLRRQWYDYWGLGTQVTVSS | high polyreactivity
QVQLVESGGGLVQAGGSLRLSCAASGSIFAPNAMGWYRQAPGKEREFVAGITQSGTSTYADSVKGRFTISRDNAKNTVYLQMNSLKPEDTAVYYCAAEYYYGYWYGYIISYDYWGQGTQVTVSS | high polyreactivity
QVQLVESGGGLVQAGGSLRLSCAASGSIFAPYAMGWTRQAPGKERELVASISVRSGSTHYADSVKGRFTISRDNAKNTVYLQMNCLNPEDTAVYYCNARTYDYSWVWESRWWYYYWGQGTQVTVSS | high polyreactivity
QVQLVESGGGLVQAGGSLRLSCAASGSIFAPYSMGWYRQAPGKERELVAAITWSGDSTYYADSVKGRFTISRDNAKNTVYLQMNSMKPEDTSVYYCATEEVYGQGNYWGQGTQLTVSS | low polyreactivity
QVQLVESGGGLVQAGGSLRLSCAASGSIFAQYAMGWYRQAPGKERELVATISSVGSTNYADSVKGRFTISRDNAKNTVYLQMNSLKPEDTAVYYCNAVRSGWGYFYGLNYWGQGTQVTVSS | low polyreactivity
QVQLVESGGGLVQAGGSLRLSCAASGSIFARYAMGWYRQAPGKEREFVAAITGRGGTTNYADSVKGRFTISRDNAKNTVYLQMNSLKPEDTAVYYCNARDRYREHDYWGQGTQVTVSS | high polyreactivity
QVQLVESGGGLVQAGGSLRLSCAASGSIFARYAMGWYRQAPGKERELVATITRGGSTNYADSVKGRFTISRDNAKNTVYLQMNSLKPDDTAVYYCARTSYGRLDYWGQGPQVTVSS | low polyreactivity
QVQLVESGGGLVQAGGSLRLSCAASGSIFASNAMGCYRQAPGKERELVAAINSGDSTNYADSVKGRFTISRDNAKNTVYLQMNSLKPEDTAVYYCARGLEERYDYWGQGTQVTVSS | low polyreactivity
QVQLVESGGGLVQAGGSLRLSCAASGSIFASNAMGWYRQAPGKERELVAAISTSGGSTYYADSVKGRFTISRDNAKNTVYLQMNSLKPEDTAVYYCAKLLARGFRIWQDYDYWGQGTQVTVSS | low polyreactivity
QVQLVESGGGLVQAGGSLRLSCAASGSIFASNTMGWYRQAPGKERELVAAISFRGGRTYYADSVKGRFTISRDNAKNTVYLQMNSLKPEDTAVYYCNAAYGRYPRGGYWGQGTQVTVSS | high polyreactivity
QVQLVESGGGLVQAGGSLRLSCAASGSIFASNTMGWYRQAPGKERELVAGITKIGSSTYYADSVKGRFTISRDHAKNTVYLQMNSLKPEDTSVYYSNAYGPNIYSSRYDYWGQGTQVTLSS | low polyreactivity
QVQLVESGGGLVQAGGSLRLSCAASGSIFASYDMGWYRQAPGKERELVARITFNGGSTYYADSVKGRFTISRDNAKNTVYLQMNSLKPEDTAVYYCANDYRYIFIYPYGWTRYDYWGQGTQVTVSS | low polyreactivity
QVQLVESGGGLVQAGGSLRLSCAASGSIFATYAMGWYRQAPGKERELGAAISRSGGSTYYADSVKGRFTISRDNAKNTVYLQMNSLKPEDTAVYYCAAVRGYGWWWSRWGSREYWGQGTQVTVSS | high polyreactivity
QVQLVESGGGLVQAGGSLRLSCAASGSIFATYAMGWYRQAPGKERELVAAISSSGSRTYYADSVKGRFTNSRDNAKNTVYLQMNSLKPEDTAVYYCAAGSGRFRPGYGYWGQGTQVTVSS | high polyreactivity
